The values that follow come from paper PMC3404891.

For orientation: Kd means the equilibrium constant for the complex coming apart.

One series has as its target EGF (Homo sapiens) (UniProt P01133). The series is described as follows: functional ELISA. Particulars: cited from earlier work. A general note: An ELISA detects its analyte on a solid surface through an enzyme-linked reagent.
In series [1] the target is T1, recombinant human EGFR/ErbB1 Fc Chimera (human, UniProt P00533 25-645). As to the kind of experiment: surface capture, Sypro Ruby fluorescence.
Series [2] concerns the target T1, recombinant human EGFR/ErbB1 Fc Chimera. The series is described as follows: nanogap break-junction I-V measurement.

Sequence of EGF (Homo sapiens) (P01133 971-1023): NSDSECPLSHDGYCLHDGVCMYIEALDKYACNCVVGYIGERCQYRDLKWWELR

Turning to “EGFR/ErbB1 Fc chimera (from UniProt P00533)”, the Kd with EGF (Homo sapiens) was less than 8 nM.

B1: extended anti-EGFR RNA aptamer hybridized to surface-anchored capture ssDNA (mixed)
RNA: GGCGCUCCGACCUUAGUCUCUGUGCCGCUAUAAUGCACGGAUUUAAUCGCCGUAGAAAAGCAUGUCAAAGCCGGAACCGUGUAGCACAGCAGAGAAUUAAAUGCCCGCCAUGACCAG
DNA: CTGGTCATGGCGGGCATTTAATTC
modifications: 5'-amine on DNA strand S3
For the molecule B1, the binding result in series [1] is reported as “binds”.

B2: extended mutant (scrambled) aptamer hybridized to surface-anchored capture ssDNA (mixed)
RNA: GGCGCUCCGACCUUAGUCUCUGUUCCCACAUCAUGCACAAGGACAAUUCUGUGCAUCCAAGGAGGAGUUCUCGGAACCGUGUAGCACAGCAGAGAAUUAAAUGCCCGCCAUGACCAG
DNA: CTGGTCATGGCGGGCATTTAATTC
modifications: 5'-amine on DNA strand S3
Regarding B2, in series [2], the binding result was “no binding”.
